Reference: patent US20250277020A1 (Boehringer Ingelheim, published 2025)

T1: Full-length human CTGF (human, UniProt P29279 27-349)
T1 construct: Corresponds to NCBI NP_001892.1 with the signal peptide omitted; purchased from R&D Systems; also called hCTGF full length; full length CTGF
T1 sequence: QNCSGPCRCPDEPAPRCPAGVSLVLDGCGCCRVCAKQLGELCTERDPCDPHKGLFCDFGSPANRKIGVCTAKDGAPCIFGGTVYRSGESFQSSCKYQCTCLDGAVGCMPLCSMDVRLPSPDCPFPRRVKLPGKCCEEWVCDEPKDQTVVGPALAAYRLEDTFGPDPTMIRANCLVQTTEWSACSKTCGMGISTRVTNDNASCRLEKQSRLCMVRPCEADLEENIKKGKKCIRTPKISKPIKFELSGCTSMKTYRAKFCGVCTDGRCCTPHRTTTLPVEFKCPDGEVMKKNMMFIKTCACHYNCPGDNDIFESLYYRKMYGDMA


Molecular target: T1, Full-length human CTGF
Assay: SPR, full length CTGF

Row | Binder | Kd [nM]
1 | A105 (antibody, human IgG1, kappa, L234A L235A) light: DIVMTQTPLSLSVSLGDQASISCKSSQSIVHYNGNTYLEWYLQKPGQSPQLLIYKVSSRASGVPDRFSGSGSGTDFTLKISRVEAEDLGVYYCFQGSHFPLTFGQGTKLEIKRTVAAPSVFIFPPSDEQLKSGTASVVCLLNNFYPREAKVQWKVDNALQSGNSQESVTEQDSKDSTYSLSSTLTLSKADYEKHKVYACEVTHQGLSSPVTKSFNRGEC heavy: not shown | 0.42
2 | A115 (antibody, human IgG1, kappa, L234A L235A) light: DIVMTQTPLSLSVSLGDQASISCKSSQSIVHYNEKTYLEWYLQKPGQSPQLLIYKVSSRASGVPDRFSGSGSGTDFTLKISRVEAEDLGVYYCFQGSHFPLTFGQGTKLEIKRTVAAPSVFIFPPSDEQLKSGTASVVCLLNNFYPREAKVQWKVDNALQSGNSQESVTEQDSKDSTYSLSSTLTLSKADYEKHKVYACEVTHQGLSSPVTKSFNRGEC heavy: not shown | 0.66
3 | A113 (antibody, human IgG1, kappa, L234A L235A) light: DIVMTQTPLSLSVSLGDQASISCKSSQSIVHYNEKTYLEWYLQKPGQSPQLLIYKVSSRASGVPDRFSGSGSGTDFTLKISRVEAEDLGVYYCFQGSHFPLTFGQGTKLEIKRTVAAPSVFIFPPSDEQLKSGTASVVCLLNNFYPREAKVQWKVDNALQSGNSQESVTEQDSKDSTYSLSSTLTLSKADYEKHKVYACEVTHQGLSSPVTKSFNRGEC heavy: not shown | 0.76
4 | A120 (antibody, human IgG1, kappa, L234A L235A) light: DIVMTQTPLSLSVSLGDQASISCKSSQSIVHYNEKTYLEWYLQKPGQSPQLLIYKVSSRASGVPDRFSGSGSGTDFTLKISRVEAEDLGVYYCFQGSHFPLTFGQGTKLEIKRTVAAPSVFIFPPSDEQLKSGTASVVCLLNNFYPREAKVQWKVDNALQSGNSQESVTEQDSKDSTYSLSSTLTLSKADYEKHKVYACEVTHQGLSSPVTKSFNRGEC heavy: not shown | 0.84
5 | A110 (antibody, human IgG1, kappa, L234A L235A) light: DIVMTQTPLSLSVSLGDQASISCKSSQSIVHYNGNTYLEWYLQKPGQSPQLLIYKVSSRASGVPDRFSGSGSGTDFTLKISRVEAEDLGVYYCFQGSHFPLTFGQGTKLEIKRTVAAPSVFIFPPSDEQLKSGTASVVCLLNNFYPREAKVQWKVDNALQSGNSQESVTEQDSKDSTYSLSSTLTLSKADYEKHKVYACEVTHQGLSSPVTKSFNRGEC heavy: not shown | 0.45
6 | A119 (antibody, human IgG1, kappa, L234A L235A) light: DIVMTQTPLSLSVSLGDQASISCKSSQSIVHYNEKTYLEWYLQKPGQSPQLLIYKVSSRASGVPDRFSGSGSGTDFTLKISRVEAEDLGVYYCFQGSHFPLTFGQGTKLEIKRTVAAPSVFIFPPSDEQLKSGTASVVCLLNNFYPREAKVQWKVDNALQSGNSQESVTEQDSKDSTYSLSSTLTLSKADYEKHKVYACEVTHQGLSSPVTKSFNRGEC heavy: not shown | 0.91
7 | A106 (antibody, human IgG1, kappa, L234A L235A) light: DIVMTQTPLSLSVSLGDQASISCKSSQSIVHYNGNTYLEWYLQKPGQSPQLLIYKVSSRASGVPDRFSGSGSGTDFTLKISRVEAEDLGVYYCFQGSHFPLTFGQGTKLEIKRTVAAPSVFIFPPSDEQLKSGTASVVCLLNNFYPREAKVQWKVDNALQSGNSQESVTEQDSKDSTYSLSSTLTLSKADYEKHKVYACEVTHQGLSSPVTKSFNRGEC heavy: not shown | 0.43
8 | A109 (antibody, human IgG1, kappa, L234A L235A) light: DIVMTQTPLSLSVSLGDQASISCKSSQSIVHYNGNTYLEWYLQKPGQSPQLLIYKVSSRASGVPDRFSGSGSGTDFTLKISRVEAEDLGVYYCFQGSHFPLTFGQGTKLEIKRTVAAPSVFIFPPSDEQLKSGTASVVCLLNNFYPREAKVQWKVDNALQSGNSQESVTEQDSKDSTYSLSSTLTLSKADYEKHKVYACEVTHQGLSSPVTKSFNRGEC heavy: not shown | 0.44
9 | A116 (antibody, human IgG1, kappa, L234A L235A) light: DIVMTQTPLSLSVSLGDQASISCKSSQSIVHYNEKTYLEWYLQKPGQSPQLLIYKVSSRASGVPDRFSGSGSGTDFTLKISRVEAEDLGVYYCFQGSHFPLTFGQGTKLEIKRTVAAPSVFIFPPSDEQLKSGTASVVCLLNNFYPREAKVQWKVDNALQSGNSQESVTEQDSKDSTYSLSSTLTLSKADYEKHKVYACEVTHQGLSSPVTKSFNRGEC heavy: not shown | 0.69
10 | A114 (antibody, human IgG1, kappa, L234A L235A) light: DIVMTQTPLSLSVSLGDQASISCKSSQSIVHYNEKTYLEWYLQKPGQSPQLLIYKVSSRASGVPDRFSGSGSGTDFTLKISRVEAEDLGVYYCFQGSHFPLTFGQGTKLEIKRTVAAPSVFIFPPSDEQLKSGTASVVCLLNNFYPREAKVQWKVDNALQSGNSQESVTEQDSKDSTYSLSSTLTLSKADYEKHKVYACEVTHQGLSSPVTKSFNRGEC heavy: not shown | 0.75
11 | A117 (antibody, human IgG1, kappa, L234A L235A) light: DIVMTQTPLSLSVSLGDQASISCKSSQSIVHYNEKTYLEWYLQKPGQSPQLLIYKVSSRASGVPDRFSGSGSGTDFTLKISRVEAEDLGVYYCFQGSHFPLTFGQGTKLEIKRTVAAPSVFIFPPSDEQLKSGTASVVCLLNNFYPREAKVQWKVDNALQSGNSQESVTEQDSKDSTYSLSSTLTLSKADYEKHKVYACEVTHQGLSSPVTKSFNRGEC heavy: not shown | 0.81
12 | A112 (antibody, human IgG1, kappa, L234A L235A) light: DIVMTQTPLSLSVSLGDQASISCKSSQSIVHYNGNTYLEWYLQKPGQSPQLLIYKVSSRASGVPDRFSGSGSGTDFTLKISRVEAEDLGVYYCFQGSHFPLTFGQGTKLEIKRTVAAPSVFIFPPSDEQLKSGTASVVCLLNNFYPREAKVQWKVDNALQSGNSQESVTEQDSKDSTYSLSSTLTLSKADYEKHKVYACEVTHQGLSSPVTKSFNRGEC heavy: not shown | 0.48
13 | A118 (antibody, human IgG1, kappa, L234A L235A) light: DIVMTQTPLSLSVSLGDQASISCKSSQSIVHYNEKTYLEWYLQKPGQSPQLLIYKVSSRASGVPDRFSGSGSGTDFTLKISRVEAEDLGVYYCFQGSHFPLTFGQGTKLEIKRTVAAPSVFIFPPSDEQLKSGTASVVCLLNNFYPREAKVQWKVDNALQSGNSQESVTEQDSKDSTYSLSSTLTLSKADYEKHKVYACEVTHQGLSSPVTKSFNRGEC heavy: not shown | 0.81
14 | A111 (antibody, human IgG1, kappa, L234A L235A) light: DIVMTQTPLSLSVSLGDQASISCKSSQSIVHYNGNTYLEWYLQKPGQSPQLLIYKVSSRASGVPDRFSGSGSGTDFTLKISRVEAEDLGVYYCFQGSHFPLTFGQGTKLEIKRTVAAPSVFIFPPSDEQLKSGTASVVCLLNNFYPREAKVQWKVDNALQSGNSQESVTEQDSKDSTYSLSSTLTLSKADYEKHKVYACEVTHQGLSSPVTKSFNRGEC heavy: not shown | 0.51

The remaining binders from weak to strong by Kd, led by results:

Row | Kd [nM] | Binder
15 | 0.42 | A108 (antibody, human IgG1, kappa, L234A L235A) light: DIVMTQTPLSLSVSLGDQASISCKSSQSIVHYNGNTYLEWYLQKPGQSPQLLIYKVSSRASGVPDRFSGSGSGTDFTLKISRVEAEDLGVYYCFQGSHFPLTFGQGTKLEIKRTVAAPSVFIFPPSDEQLKSGTASVVCLLNNFYPREAKVQWKVDNALQSGNSQESVTEQDSKDSTYSLSSTLTLSKADYEKHKVYACEVTHQGLSSPVTKSFNRGEC heavy: not shown
16 | 0.37 | A107 (antibody, human IgG1, kappa, L234A L235A) light: DIVMTQTPLSLSVSLGDQASISCKSSQSIVHYNGNTYLEWYLQKPGQSPQLLIYKVSSRASGVPDRFSGSGSGTDFTLKISRVEAEDLGVYYCFQGSHFPLTFGQGTKLEIKRTVAAPSVFIFPPSDEQLKSGTASVVCLLNNFYPREAKVQWKVDNALQSGNSQESVTEQDSKDSTYSLSSTLTLSKADYEKHKVYACEVTHQGLSSPVTKSFNRGEC heavy: not shown
17 | 0.28 | A127 (antibody, human IgG1, kappa, L234A L235A, V domains shown) VH: EVQLVESGGGLVQPGGSLRLSCAASGFTFSDYYMAWVRQAPGKGLEWVANINYDGSRTDLLESLKSRFTISRDNAKNSVYLQMNSLRAEDTAVYYCARDTSRGSYFDVWGAGTTVTVSS VL: VVMTQTPLSLPVSLGDQASISCRSSQSIVHYNGNTYLEWYLQKPGQSPQLLIYKVSNRDSGVPDRFSGSGSGTDFTLKISRVEAEDLGVYYCFQGSHFPLTFGQGTKLEIKR
18 | 0.27 | A128 (antibody, human IgG1, kappa, L234A L235A, humanized from the 15 pM mouse clone; also called humanized antibody A128) light: VVMTQTPLSLPVSLGDQASISCRSSQSIVHYNGNTYLEWYLQKPGQSPQLLIYKVSNRDSGVPDRFSGSGSGTDFTLKISRVEAEDLGVYYCFQGSHFPLTFGQGTKLEIKRTVAAPSVFIFPPSDEQLKSGTASVVCLLNNFYPREAKVQWKVDNALQSGNSQESVTEQDSKDSTYSLSSTLTLSKADYEKHKVYACEVTHQGLSSPVTKSFNRGEC heavy: not shown
19 | 0.27 | A126 (antibody, human IgG1, kappa, L234A L235A, V domains shown) VH: EVQLVESGGGLVQPGGSLRLSCAASGFTFSDYYMAWVRQAPGKGLEWVANINYEGSRTDLLDSLKSRFTISRDNAKNSVYLQMNSLRAEDTAVYYCARDTSRGSYFDVWGAGTTVTVSS VL: VVMTQTPLSLPVSLGDQASISCRSSQSIVHYNGNTYLEWYLQKPGQSPQLLIYKVSNRDSGVPDRFSGSGSGTDFTLKISRVEAEDLGVYYCFQGSHFPLTFGQGTKLEIKR
20 | 0.26 | A125 (antibody, human IgG1, kappa, L234A L235A) light: VVMTQTPLSLPVSLGDQASISCRSSQSIVHYNGNTYLEWYLQKPGQSPQLLIYKVSNRDSGVPDRFSGSGSGTDFTLKISRVEAEDLGVYYCFQGSHFPLTFGQGTKLEIKRTVAAPSVFIFPPSDEQLKSGTASVVCLLNNFYPREAKVQWKVDNALQSGNSQESVTEQDSKDSTYSLSSTLTLSKADYEKHKVYACEVTHQGLSSPVTKSFNRGEC heavy: not shown
21 | 0.25 | A124 (antibody, human IgG1, kappa, L234A L235A, V domains shown) VH: EVQLVESGGGLVQPGGSLRLSCAASGFTFSDYYMAWVRQAPGKGLEWVANINYYGSRTDLLASLKSRFTISRDNAKNSVYLQMNSLRAEDTAVYYCARDTSRGSYFDVWGAGTTVTVSS VL: VVMTQTPLSLPVSLGDQASISCRSSQSIVHYNGNTYLEWYLQKPGQSPQLLIYKVSNRDSGVPDRFSGSGSGTDFTLKISRVEAEDLGVYYCFQGSHFPLTFGQGTKLEIKR
